Laboratory results published in US20190345227A1.

Biological target: SpyCatcher-elastin-CarHC-elastin-SpyCatcher
Experiment: cell-based or functional assay

How did the free mCherry detected in the supernatant of the AAA+BCB hydrogel, under both dark and bright conditions turn out when mCherry was run?
Its free mCherry detected in the supernatant of the AAA+BCB hydrogel, under both dark and bright conditions is 50%.
